# What was measured:
# [1] = molecular target: the molecule itself; test: SEC; Superdex 200 5/150 GL, PBS pH 7.4 with 1 mM DTT, room temperature; low hPrx1 concentrations (e.g. 0.5 uM): peak at 5.2 min
# [2] = molecular target: the molecule itself; test: SEC; Superdex 200 5/150 GL, PBS pH 7.4 with 1 mM DTT, room temperature; high hPrx1 concentrations (e.g. 20 uM): peak at 3.9 min
protein,measurement,setting,value
"human peroxiredoxin 1 (enzyme, UniProt Q06830 1-199, looked up, human peroxiredoxin 1 (hPrx1), recombinant; The protein is an obligate homodimer; five dimers form a ring-shaped decamer; It was used in the reduced state, with 1 mM DTT in all measurements; also called hPrx1; human Prx1; source: E. coli BL21(DE3), purified from bacterial lysates; reduced with 10 mM DTT before all experiments) MSSGNAKIGHPAPNFKATAVMPDGQFKDISLSDYKGKYVVFFFYPLDFTFVCPTEIIAFSDRAEEFKKLNCQVIGASVDSHFCHLAWVNTPKKQGGLGPMNIPLVSDPKRTIAQDYGVLKADEGISFRGLFIIDDKGILRQITVNDLPVGRSVDETLRLVQAFQFTDKHGEVCPAGWKPGSDTIKPDVQKSKEYFSKQK",stoichiometry N,[1],2
same,stoichiometry N,[2],10
